B1: Rab11 family-interacting protein 3 (Homo sapiens), O75154-1 (parent)
chain: MASAPPASPPGSEPPGPDPEPGGPDGPGAAQLAPGPAELRLGAPVGGPDPQSPGLDEPAPGAAADGGARWSAGPAPGLEGGPRDPGPSAPPPRSGPRGQLASPDAPGPGPRSEAPLPELDPLFSWTEEPEECGPASCPESAPFRLQGSSSSHRARGEVDVFSPFPAPTAGELALEQGPGSPPQPSDLSQTHPLPSEPVGSQEDGPRLRAVFDALDGDGDGFVRIEDFIQFATVYGAEQVKDLTKYLDPSGLGVISFEDFYQGITAIRNGDPDGQCYGGVASAQDEEPLACPDEFDDFVTYEANEVTDSAYMGSESTYSECETFTDEDTSTLVHPELQPEGDADSAGGSAVPSECLDAMEEPDHGALLLLPGRPHPHGQSVITVIGGEEHFEDYGEGSEAELSPETLCNGQLGCSDPAFLTPSPTKRLSSKKVARYLHQSGALTMEALEDPSPELMEGPEEDIADKVVFLERRVLELEKDTAATGEQHSRLRQENLQLVHRANALEEQLKEQELRACEMVLEETRRQKELLCKMEREKSIEIENLQTRLQQLDEENSELRSCTPCLKANIERLEEEKQKLLDEIESLTLRLSEEQENKRRMGDRLSHERHQFQRDKEATQELIEDLRKQLEHLQLLKLEAEQRRGRSSSMGLQEYHSRARESELEQEVRRLKQDNRNLKEQNEELNGQIITLSIQGAKSLFSTAFSESLAAEISSVSRDELMEAIQKQEEINFRLQDYIDRIIVAIMETNPSILEVK

The variants in this experiment derive from B1. The note with it: with rb11a_human RAB11A.
For E747A, the “effect of a mutation on the interaction” value was “decreasing interaction strength”.
Turning to M746S, the “effect of a mutation on the interaction” value was “disrupting interaction strength”.
On to Y737S, for which the “effect of a mutation on the interaction” value is “disrupting interaction strength”.
To D739A belongs “disrupting interaction strength”.

Source of the values: IntAct's records for PubMed 17030804.
